Measurements from article PMC4490372, “Architecture of TFIIIC and its role in RNA polymerase III pre-initiation complex assembly” (Nature Communications, 2015).

T1: τ91 (Tfc6), τB subunit of endogenous S. cerevisiae TFIIIC (S. cerevisiae, UniProt Q06339 1-672)
T1 construct: τ91 (Tfc6), subunit of S. cerevisiae TFIIIC, endogenous subunit in the purified complex; source: endogenous, purified from S. cerevisiae strain SC2342 as part of TFIIIC (TAP tag on τ60)
T1 sequence (looked up): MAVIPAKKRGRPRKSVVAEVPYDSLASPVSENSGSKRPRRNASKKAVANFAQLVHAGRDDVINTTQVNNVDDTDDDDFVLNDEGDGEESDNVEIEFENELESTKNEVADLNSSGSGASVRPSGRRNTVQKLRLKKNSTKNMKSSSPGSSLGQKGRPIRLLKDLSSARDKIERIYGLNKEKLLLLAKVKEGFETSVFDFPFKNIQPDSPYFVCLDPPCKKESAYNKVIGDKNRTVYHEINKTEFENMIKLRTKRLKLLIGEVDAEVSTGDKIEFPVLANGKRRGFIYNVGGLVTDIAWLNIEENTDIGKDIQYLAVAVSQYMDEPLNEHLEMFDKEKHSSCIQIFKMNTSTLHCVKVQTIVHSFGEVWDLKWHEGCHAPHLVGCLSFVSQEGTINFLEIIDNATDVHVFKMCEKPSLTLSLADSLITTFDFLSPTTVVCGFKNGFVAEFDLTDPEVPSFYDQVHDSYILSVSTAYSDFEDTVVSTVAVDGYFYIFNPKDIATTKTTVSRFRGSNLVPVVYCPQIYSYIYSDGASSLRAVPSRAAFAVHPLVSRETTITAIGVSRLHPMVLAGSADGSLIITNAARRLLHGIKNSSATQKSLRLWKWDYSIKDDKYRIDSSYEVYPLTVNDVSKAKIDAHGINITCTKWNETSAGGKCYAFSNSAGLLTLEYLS

T2: Bdp1, full-length, recombinant (UniProt P46678 1-594)
T2 construct: Bdp1, subunit of TFIIIB, full-length; also called untagged Bdp1; source: E. coli BL21 Star (DE3) pRARE, purified (Ni-NTA, TEV cleavage, S200 SEC); not shown: His6, N-terminal, cleaved
T2 sequence (looked up): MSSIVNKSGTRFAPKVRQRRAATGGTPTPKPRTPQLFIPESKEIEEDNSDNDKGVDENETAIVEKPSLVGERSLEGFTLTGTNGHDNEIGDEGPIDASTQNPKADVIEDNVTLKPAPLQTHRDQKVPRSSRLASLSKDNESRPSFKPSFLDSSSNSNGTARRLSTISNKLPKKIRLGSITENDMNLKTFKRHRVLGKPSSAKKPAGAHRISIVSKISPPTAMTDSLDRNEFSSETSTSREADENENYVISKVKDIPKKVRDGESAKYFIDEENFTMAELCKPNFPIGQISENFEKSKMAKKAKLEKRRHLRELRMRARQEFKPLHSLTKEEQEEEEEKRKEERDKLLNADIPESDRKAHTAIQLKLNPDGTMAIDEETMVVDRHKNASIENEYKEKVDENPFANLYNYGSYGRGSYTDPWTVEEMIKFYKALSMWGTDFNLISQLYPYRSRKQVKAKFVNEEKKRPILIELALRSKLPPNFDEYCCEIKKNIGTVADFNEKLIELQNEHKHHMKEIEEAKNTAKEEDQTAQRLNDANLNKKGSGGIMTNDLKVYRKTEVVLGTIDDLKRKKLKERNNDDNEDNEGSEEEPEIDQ


Experiments:
[1] = biological target: T1, τ91 (Tfc6), τB subunit of endogenous S. …; assay: SEC; endogenous TFIIIC purified from yeast by the TAP tag on τ60 (heparin, IgG Sepharose, TEV, MonoQ), then Superose 6 10/300 in 25 mM HEPES pH 7.5, 150 mM NaCl, 1 mM DTT; SDS-PAGE of an elution peak fraction; conditions: partners not purified
[2] = biological target: T2, Bdp1, full-length, recombinant; assay: pull-down; 15 μg GST-tagged τ131 on Glutathione Sepharose 4B; 300 nM τ138 or Bdp1, or 1 μM Brf1–TBP; 50 mM Tris pH 7.5, 150 mM NaCl, 2 mM DTT, 0.1% Tween20; 4 °C, 4 h; conditions: both partners purified

binding result [1]	binding result [2]	Binder
binds	–	τ60 (Tfc8), τB subunit of endogenous S. cerevisiae TFIIIC, fused with a C-terminal TAP-tag (natural protein, UniProt Q12308 1-588, looked up, τ60 (Tfc8), subunit of S. cerevisiae TFIIIC, endogenous TFC8 fused with a C-terminal TAP-tag; The complex was captured on IgG Sepharose by the TAP tag and released by TEV protease before MonoQ, Superose 6 and cross-linking; not shown: TAP, C-terminal, kept) MKLLKDLLVDRKEFEDWKNNLTWARDGTLYLTTFPDISIGQPKYAKDINCNSKNLFHVKEFPLEFENKLDFELAQQNGLLNSQPVCYPRVCKPSPIDDWMAVLSNNGNVSVFKDNKMLTNLDSKGNLSSRTYHCFEWNPIESSIVVGNEDGELQFFSIRKNSENTPEFYFESSIRLSDAGSKDWVTHIVWYEDVLVAALSNNSVFSMTVSASSHQPVSRMIQNASRRKITDLKIVDYKVVLTCPGYVHKIDLKNYSISSLKTGSLENFHIIPLNHEKESTILLMSNKTSYKVLLEDELHVTADNIIAPYLEKKFKKWSTIWNEFNNYETTLVIHGISLSPDGYSIAIVYDMERVAFKYKIASEQSFNIMFAPLYHTWTISERAVGLAWYQTYQIYNQSLPKLPENFSMNKKLLNGNYPISLDFQSYLNALMKSEEMRIIMFLNMTIDKPSILSFLEALYEYAINKKSELTNSFDLACVLSIAAILKREAPIYNGTLLMKNSFLEETFNLESFTADPETVTSTTNNTWKRCGVTLLPILTTHVKICPVSKQRVIDIKRDDLNDYGWFTRGLLERFNEISVYCGTTLEVM
–	binds	GST-tagged τ131 (1–580), wild type (domain or fragment, S. cerevisiae, UniProt P33339 1-580, looked up, τ131 (Tfc4) of S. cerevisiae TFIIIC, residues 1-580 (extended N terminus and TPR array); also called GST-τ131 (1–580); longer τ131 protein; source: E. coli BL21 (DE3) Gold, purified (GST column, S200 SEC)) MAAGKLKKEQQNQSAERESADTGKVNDEDEEHLYGNIDDYKHLIQDEEYDDEDVPHDLQLSEDEYNSERDSSLLAEFSDYGEISEDDEEDFMNAIREASNFKVKKKKKNDKGKSYGRQRKERVLDPEVAQLLSQANEAFVRNDLQVAERLFNEVIKKDARNFAAYETLGDIYQLQGRLNDCCNSWFLAAHLNASDWEFWKIVAILSADLDHVRQAIYCFSRVISLNPMEWESIYRRSMLYKKTGQLARALDGFQRLYMYNPYDANILRELAILYVDYDRIEDSIELYMKVFNANVERREAILAALENALDSSDEESAAEGEDADEKEPLEQDEDRQMFPDINWKKIDAKYKCIPFDWSSLNILAELFLKLAVSEVDGIKTIKKCARWIQRRESQTFWDHVPDDSEFDNRRFKNSTFDSLLAAEKEKSYNIPIDIRVRLGLLRLNTDNLVEALNHFQCLYDETFSDVADLYFEAATALTRAEKYKEAIDFFTPLLSLEEWRTTDVFKPLARCYKEIESYETAKEFYELAIKSEPDDLDIRVSLAEVYYRLNDPETFKHMLVDVVEMRKHQVDETLHRISNE
–	binds	GST-tagged τ131 (123–566), wild type (domain or fragment, S. cerevisiae, UniProt P33339 123-566, looked up, also called GST-τ131; source: E. coli BL21 (DE3) Gold, purified (GST column, S200 SEC)) VLDPEVAQLLSQANEAFVRNDLQVAERLFNEVIKKDARNFAAYETLGDIYQLQGRLNDCCNSWFLAAHLNASDWEFWKIVAILSADLDHVRQAIYCFSRVISLNPMEWESIYRRSMLYKKTGQLARALDGFQRLYMYNPYDANILRELAILYVDYDRIEDSIELYMKVFNANVERREAILAALENALDSSDEESAAEGEDADEKEPLEQDEDRQMFPDINWKKIDAKYKCIPFDWSSLNILAELFLKLAVSEVDGIKTIKKCARWIQRRESQTFWDHVPDDSEFDNRRFKNSTFDSLLAAEKEKSYNIPIDIRVRLGLLRLNTDNLVEALNHFQCLYDETFSDVADLYFEAATALTRAEKYKEAIDFFTPLLSLEEWRTTDVFKPLARCYKEIESYETAKEFYELAIKSEPDDLDIRVSLAEVYYRLNDPETFKHMLVDVVEMR
